A short description of this data set: yeast display, Sf9 membrane polyspecificity reagent, FACS + sequencing; frameworks hold sequencing errors. The method, boiled down: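 Genes from sorted yeast were amplified by colony PCR, read by MiSeq 2 × 250 sequencing and filtered on CDR length. These cells carried a synthetic nanobody library in Saccharomyces cerevisiae BJ5465 and were sorted by FACS into low and high (top ~1%) gates on anti-HA and streptavidin fluorescence. Polyreactivity is labelled according to the gate of origin.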
Take “QVQLVESGGGLVQAGGSLRLSCAASGLTFGNNAMGWYRQAPGKERELVAAISSDGTTYYADSVKGRFTISRDNAKNTVYLQMNSLKPEDTAVYYCNAAAEISSFDYDYWGQGTQVTVSS”: the “polyreactivity (PSR sort gate)” value was “low polyreactivity”.

On to “QVQLVESGGGLVQAGGSLRLSCAASGLTFGPYAMGWYRQAPGKERELVAAITSGGNTNYADSVKGRYTISRDNAKNTVYLQMNSLKPEETAVYYCATSYYLAYRSITPYDYWGQGTQVTVSS”, for which the “polyreactivity (PSR sort gate)” value is “low polyreactivity”.

On to “QVQLVESGGGLVQAGGSLRLSCAASGLTFGRYAMGWYIQATGKERQLVASISQRGGSTYYADSVKGRFTISRDNAKNTVYLQMNSLKPEDTAVYYCNARVRDIYRYSMDSWGQGTQVTVSS”, for which the “polyreactivity (PSR sort gate)” value is recorded as “low polyreactivity”.

Regarding “QVQLVESGGGLVQAGGSLRLSCAASGLTFGSNAMGWYRQAPGKERELVAAITSSGGRTYYADSVKGRFTISRDNAKNTVYLQMNSLKPEVTAVYYCAAVYQILLYFPGRYDYWGQGTQVTVSS”, the “polyreactivity (PSR sort gate)” value is reported as “low polyreactivity”.

Take “QVQLVESGGGLVQAGGSLRLSCAASGLTFGTNAMGWYRQAPGKERELVAAISTSSGSTYYADSVKGRFTISRDNAKNTVYLQMNSLKPEDTAVYYCAAVTVTKLSYYRYYYWGQGTQVTVSS”: the “polyreactivity (PSR sort gate)” value was “low polyreactivity”.

“QVQLVESGGGLVQAGGSLRLSCAASGLTFGVYAMGWYRPAPGKERELVAAITATGGSTYYADSVKGRFTISRDNAKNTVYLQMNSLKPEDTAVYYCAKPDFYRMGYWGQGTQVTVSS”: the “polyreactivity (PSR sort gate)” value was “low polyreactivity”.

As to “QVQLVESGGGLVQAGGSLRLSCAASGLTFGWYAMGWYRQAPRKERELVAAISWSGSTTYYADSVKGRFTISRDNAKNTVYLQMNSLKPEDTAVYYCAADVSTRPYGYYYWGQGTQVTVSS”, the “polyreactivity (PSR sort gate)” value is reported as “high polyreactivity”.

As to “QVQLVESGGGLVQAGGSLRLSCAASGLTFHPYAMGWYRQAPGKERELVAAISSRGTSTYYADSVKGRFTISRDNAKNTVYLQMNSLKPEDTAVYYCAARYRLYYYFRFDWGQGTQVTVSS”, the “polyreactivity (PSR sort gate)” value is “high polyreactivity”.

Regarding “QVQLVESGGGLVQAGGSLRLSCAASGLTFHSYAMGWYRQAPGKERELVAAINYSGGRTDYADSVKGRFTISRDNALKSVYLQMNSLQPADTAVYFCAAQRASAYYCGQGTQVTVSS”, the “polyreactivity (PSR sort gate)” value is “high polyreactivity”.

In the case of “QVQLVESGGGLVQAGGSLRLSCAASGLTFIEYAMGWYRQAPGKERELVAAISSGGRTYYADSVKGRFTISRDNPKNTVYLQMNSLKPEDTAVYYCNDRGYRRWYNYWGQGTQVTVSS”, the “polyreactivity (PSR sort gate)” value was “high polyreactivity”.

Regarding “QVQLVESGGGLVQAGGSLRLSCAASGLTFIINDMGWYRQAPGKERELVAGITNGGSTYADSVKGRFTISRDNAKNTVYLQMNCLKPEDTAVYYCAVPWYDFARSIQVDEYDYWGQGTQVTVSS”, the “polyreactivity (PSR sort gate)” value is reported as “low polyreactivity”.

Regarding “QVQLVESGGGLVQAGGSLRLSCAASGLTFIKYAMGWYRQAPGKERELVADITSSGGTTYYADSVKGRFTISRDNAKNTVYLQMNSLKPEDTAVYYCAAGTRTGMNWGQGTQVTVSS”, the “polyreactivity (PSR sort gate)” value is reported as “high polyreactivity”.

For the sequence “QVQLVESGGGLVQAGGSLRLSCAASGLTFIKYTMGWSRQAPGKERELVATIRASTGSTYYADSVKGRFTISRDNAKNTVYLQMNSLKPEDTAVYYCATRSYPPYYGLYGGRAYNYWGQGTQVTVSS”, the “polyreactivity (PSR sort gate)” value is “high polyreactivity”.

Consider “QVQLVESGGGLVQAGGSLRLSCAASGLTFIPNAMGWYRQAPGKERELVAAISGTGGSTYYADSVKGRFTISRDNAKNTVYLQMNSLKPEDTAVYYCAARRRYKSGYWGQGTQVTVSS”, for which the “polyreactivity (PSR sort gate)” value was “high polyreactivity”.

For “QVQLVESGGGLVQAGGSLRLSCAASGLTFISYDMGWYRQAPGKERELVAAISSGGVLPNYADSVKGRFTISRDNAKNTVYLQMNSLKPEDTAVYYCNADTPTWPLDYWGQGTQVTVSS”, the “polyreactivity (PSR sort gate)” value is given as “low polyreactivity”.

For “QVQLVESGGGLVQAGGSLRLSCAASGLTFKDNAMGWYRQAPGKERELVAAISKGGGSTFYADSVKGRFTISRDNAKNTVYLQMNSLKPEDTAVYYCNADVGYRGGEEDYWGQGTQVTVSS”, the “polyreactivity (PSR sort gate)” value is “low polyreactivity”.

Turning to “QVQLVESGGGLVQAGGSLRLSCAASGLTFKKYAMGWYRQAPGKERELVAAISRGGSTNYADSVKGRFTISRDNAKNTVYLQMNSLKPDDTAVYYCAAEGYWHVYADYYLEDYYWGQGTQVTVSS”, the “polyreactivity (PSR sort gate)” value is “high polyreactivity”.

With “QVQLVESGGGLVQAGGSLRLSCAASGLTFKRYAMGWYRQAPGKERELVASITGNGGSTYYADSVKGRFTISRDNAKNTFYLQMNSLKPEDTAVYYCNVGYRGWSVNSWGQGTQVTVSS”, the “polyreactivity (PSR sort gate)” value is recorded as “high polyreactivity”.

“QVQLVESGGGLVQAGGSLRLSCAASGLTFKRYGMGWYIQAPGKERELVAAINWRGTSTYYADSVKGRFTISRDNAKNTVYLQMNSLKPEDTAVYYCAAVGPFYGPGEYWGQGTQVTVSS”: the “polyreactivity (PSR sort gate)” value is “high polyreactivity”.

“QVQLVESGGGLVQAGGSLRLSCAASGLTFKYYAMGWYRQAPGKERELVAAISASGGRTSYADSVKGRFTISRDNAKNTFYLQMNSLKPEDTAVYYCNADITSSGPKSDYWGQGTQVTVSS”: the “polyreactivity (PSR sort gate)” value is given as “high polyreactivity”.

With “QVQLVESGGGLVQAGGSLRLSCAASGLTFKYYAMGWYRQAPGKERELVAAITSTGGRTYYADSVKGRFTISRDNAKNTVYLQMNSLKPEDTAFYYCAAYYVGSSKYDSWGQGTQVTVSS”, the “polyreactivity (PSR sort gate)” value is on record as “low polyreactivity”.

With “QVQLVESGGGLVQAGGSLRLSCAASGLTFKYYAMGWYRQAPGKERELVAIISFGGGSTYYADSVKGRFTISRDNAKNTVYLQMNSLKPEDTAVYYCNARLLFKYGYWGQGTQVTVSS”, the “polyreactivity (PSR sort gate)” value is “high polyreactivity”.

On to “QVQLVESGGGLVQAGGSLRLSCAASGLTFLFYAMGWYRQAPGKERELVASIRWSDGRTYYADSVKGRFTISRDNAKNTVYLQMNSLKPEDTAVYYCAVVPAYVYLNREYYWGQGTQVTVSS”, for which the “polyreactivity (PSR sort gate)” value is “high polyreactivity”.

As to “QVQLVESGGGLVQAGGSLRLSCAASGLTFLNNAMGWYRQAPVKERELVAAISVGGSTNYADSVKGRFTISRDNAKNTVYLQMNSLKPEDTAVYYCAAVYTSASYGSWGQGTQVTVSS”, the “polyreactivity (PSR sort gate)” value is on record as “low polyreactivity”.

For “QVQLVESGGGLVQAGGSLRLSCAASGLTFLYYAMGWYRQAPGKERELVASISRGSNTNYADSVKGRFTISRDNAKNTVYLQMNSLKPEDTAVYYCAVDRRPYSGHGYDYWGQGTQVTVSS”, the “polyreactivity (PSR sort gate)” value is “high polyreactivity”.

For “QVQLVESGGGLVQAGGSLRLSCAASGLTFNRYAMGCYRQAPGKEREFVAAISVRSGSTYYADSVKGRFTISRDNAKNTVYLQMNSLKPEDTAVYYCAAKIRKDYSIQGYDYWGQGTQVTVSS”, the “polyreactivity (PSR sort gate)” value is reported as “high polyreactivity”.

For the sequence “QVQLVESGGGLVQAGGSLRLSCAASGLTFNYYAMGWSRPAPGKERELVAAISSDGRTDYADSVKGRFTISRDNAKNTVYLQMNSLKPEDTAVSYCAASWYRWGKSWRQYDYWGQGTQVTVSL”, the “polyreactivity (PSR sort gate)” value is “low polyreactivity”.

In the case of “QVQLVESGGGLVQAGGSLRLSCAASGLTFPHNAMGWYRQAPGKERELVAAITSSGGSTYYADSVKGRFTISRDNAKNTVYIQMNSLKPEDTAVYYCAAKRKPRPSYRYGYWGQGTQVTVSS”, the “polyreactivity (PSR sort gate)” value was “high polyreactivity”.

“QVQLVESGGGLVQAGGSLRLSCAASGLTFPIYAMGWYRQAPGKEREFVAVNTTSGGSTYYADSVKGRFTISRDNAKNTVYLQMNILKPEDTAVYYCNARPEYTYWPGYIYWGEGTQVTVSS”: the “polyreactivity (PSR sort gate)” value is “high polyreactivity”.

Regarding “QVQLVESGGGLVQAGGSLRLSCAASGLTFPNNGMGWYRQAPGKERELVAAIRSSGGSTYYADSVKGRFTISRDNAKNTVYLQMNSLKPEDTAVYYCNARRRGGYVGRPRYPVAAYDYWGQGTQVTVSS”, the “polyreactivity (PSR sort gate)” value is “low polyreactivity”.

With “QVQLVESGGGLVQAGGSLRLSCAASGLTFPPNAMGWYRQAPGKEREFVAVISSGGGSTYYADSVKGRFTISRDNAKNTVYLQMNSLKPEDTAVYYCNTYYWYSGSPYDYWGQGTQVTVSS”, the “polyreactivity (PSR sort gate)” value is “low polyreactivity”.

Regarding “QVQLVESGGGLVQAGGSLRLSCAASGLTFPQYAMGWYRQAPGKERELVAAISKTGGSTYYADSVKGRFTISRDNAKNTVYLQMNSLKPEDTAVYYCAAVESGDRGQRINYWGQGTQVTVAS”, the “polyreactivity (PSR sort gate)” value is “high polyreactivity”.

Consider “QVQLVESGGGLVQAGGSLRLSCAASGLTFPRYAMGWYRQAPGIERELVAAISYRGSRTYYADSVKGRFTISRDNAKNTVYLQMNSLKPEDSAVYYCNKVRPGYGVTYLVGYWGQGTQVTVSS”, for which the “polyreactivity (PSR sort gate)” value was “high polyreactivity”.

Regarding “QVQLVESGGGLVQAGGSLRLSCAASGLTFPSNAMGWYRPAPGKERELVAAISKRGGRTYYADSVKGRFTISRDNAKNTVYLQMNSLKPEDTAVYYCATPYAYPGTVQYAGYNYWGQGTQVTVSS”, the “polyreactivity (PSR sort gate)” value is recorded as “high polyreactivity”.

Take “QVQLVESGGGLVQAGGSLRLSCAASGLTFPWYAMGWYRQAPGKERELVAGISWSGGSTYYADSVKGRFTISRDNAKNTVYLQMNSLKPEDTAVYYCAARVWYYDYWGQGTQVTVSS”: the “polyreactivity (PSR sort gate)” value is given as “high polyreactivity”.

On to “QVQLVESGGGLVQAGGSLRLSCAASGLTFPYYAMGWYRQAPGKERELVAGISDSGDSTYYADSVKGRFTISRDNAKNTVYLQMNSLKPEDTAVYYCNAYFRYSYDYWGQGTQVTVSS”, for which the “polyreactivity (PSR sort gate)” value is “high polyreactivity”.

In the case of “QVQLVESGGGLVQAGGSLRLSCAASGLTFQGYAMGWYRQAPGKERELVAAISGSGGSTYYADSVKGRFTISRDNAKNTVYLQMNSLKPEDTAVYYCAADDSYYGIDYGYWGQGTQVTVSS”, the “polyreactivity (PSR sort gate)” value is “low polyreactivity”.

For “QVQLVESGGGLVQAGGSLRLSCAASGLTFRANAMGWYRQAPGKERELVAAISWRGGGTYYADSVKGRFTISRDNAKNTVYLQMNSLKPEDTAVYYCDAKTQNAYYWGQGTQVTVSS”, the “polyreactivity (PSR sort gate)” value is on record as “low polyreactivity”.

“QVQLVESGGGLVQAGGSLRLSCAASGLTFRAYAMGWYRLAPGKERELVAAITWSGTRTYYADSVKGRFTISRDNAKNTVYLQMNSLKPEDTAVYYCARGHTKVKYDYWGQGTQVTVSS”: the “polyreactivity (PSR sort gate)” value was “low polyreactivity”.

Regarding “QVQLVESGGGLVQAGGSLRLSCAASGLTFRDNAMGWYRQAPGTERELVATMNSGGSTDYADSVKGRFTISRHNAKNTVYLQMNSLKPEDTAVYYCAVYREYYDRGWYSIFYWYDYWGQGTQVTVSS”, the “polyreactivity (PSR sort gate)” value is on record as “low polyreactivity”.

On to “QVQLVESGGGLVQAGGSLRLSCAASGLTFRGYAMGWYRQAPGKERELVAAITSSAGRTYYADSVKGRFTISRDNAKNTVYLQLNSLKQEDTAVYYCAAAHSYTTRWGYYKFNYWGQGTKVTVSS”, for which the “polyreactivity (PSR sort gate)” value is “high polyreactivity”.

The record behind these values is the nanobody polyreactivity screen of Harvey et al. (2022).
